According to publication PMC11261967, “The retrotransposon-derived capsid genes PNMA1 and PNMA4 maintain reproductive capacity” (Research Square, 2024):

B1: recombinant mouse PNMA1, His-tagged (natural protein, UniProt Q8C1C8 1-353, looked up)
chain: MAMTLLEDWCRGMDVNSQRALLVWGIPVNCDETEIEETLQAAMPQVSYRVLGRMFWREENAKAALLELTGAVDYSLIPREMPGKGGLWKVVFKPPTSDAVFLERLHLFLAREGWTVQDVARVLGFQNPAPAPGPEMPAEMLNYILDNVIQPLVESIWYKKLTLFSGKDIPGPGEETFDSWLEHSNEIIEEWQVSDIEKRRRLMESLRGPAADVIRILKTNNAAITTAECLKALEQVFGSVESSRDAQVRFLNTYQNPGEKLSSYVIRLEPLLQKVVDKGVIDKDNVNQARLEQVIAGANHSGALRRQLWLAGAEEGPAPNLFQLLVQIREEEAKKEEEEAEAALLQLGLEGHF
notes: PNMA1, mouse, full-length Pnma1 cloned into the first cassette of a modified pET-Duet plasmid; The modified pET-Duet encodes a C-terminal 3C protease cut site followed by the His tag; no cleavage is described; source: E. coli LOBSTR (RIL plasmid), purified (Ni-Sepharose, Superose 6 size exclusion; void fractions collected); not shown: His tag, C-terminal, kept
B2: recombinant mouse PNMA4, His-tagged (natural protein, UniProt Q9ERH6 1-352, looked up)
chain: MTLRLLEDWCRGMDMNPRKALLVAGIPPTCGVADIEEALQAGLAPLGEHRLLGRMFRRDENKNVALIGLTVETGSALVPKEIPAKGGVWRVIFKPPDTDSDFLCRLNEFLKGEGMTMGELTRVLGNRNDPLGLDPGIMIPEIRAPMLAQALNEALKPTLQYLRYKKLSVFSGRDPPGPGEEEFESWMFHTSQVMKTWQVSDVEKRRRLIESLRGPAFEIIRVLKINNPFITVAECLKTLETIFGIIDNPRALQVKYLTTYQKTDEKLSAYVLRLEPLLQKLVQKGAIEKEVVNQARLDQVIAGAVHKSVRRELGLPEGSPAPGLLQLLTLIKDKEAEEEEVLLQAELEGYCT
notes: PNMA4 (also called MOAP-1 or MAP-1), mouse, full-length Pnma4 cloned into the first cassette of a modified pET-Duet plasmid; The modified pET-Duet encodes a C-terminal 3C protease cut site followed by the His tag; no cleavage is described; also called MOAP-1; MAP-1; source: E. coli LOBSTR (RIL plasmid), purified (Ni-Sepharose, Superose 6 size exclusion; void fractions collected); not shown: His …

Target: the molecule itself
Experiment: SEC + other: negative stain transmission electron microscopy; Ni-purified His-tagged protein run over Superose 6 Increase HiScale (80 ml); void (high molecular weight) fractions visualised by negative stain TEM (2% uranyl acetate), 2D classes in cryoSPARC; self-assembly into capsid-like particles

Protein	binding result
B1	binds
B2	binds
